Article doi:10.1101/2020.11.23.394106 (bioRxiv, 2020)
Where no end group is shown, it is not given here.

T1: merlin FERM domain (22-312), GST tag cleaved (human, UniProt P35240 22-312)
T1 sequence: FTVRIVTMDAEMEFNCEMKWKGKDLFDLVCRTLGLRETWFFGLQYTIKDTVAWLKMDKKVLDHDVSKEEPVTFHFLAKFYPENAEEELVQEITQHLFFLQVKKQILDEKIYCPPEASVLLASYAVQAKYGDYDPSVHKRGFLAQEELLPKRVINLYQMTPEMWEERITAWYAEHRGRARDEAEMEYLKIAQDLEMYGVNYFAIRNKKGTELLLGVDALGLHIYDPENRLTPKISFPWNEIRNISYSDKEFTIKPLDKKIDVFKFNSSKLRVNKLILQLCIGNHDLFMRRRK


Key:
[1] = target: moesin FERM domain, GST tag cleaved (UniProt P26038 2-295); assay: fluorescence polarisation
moesin FERM domain, GST tag cleaved, sequence (P26038 2-295): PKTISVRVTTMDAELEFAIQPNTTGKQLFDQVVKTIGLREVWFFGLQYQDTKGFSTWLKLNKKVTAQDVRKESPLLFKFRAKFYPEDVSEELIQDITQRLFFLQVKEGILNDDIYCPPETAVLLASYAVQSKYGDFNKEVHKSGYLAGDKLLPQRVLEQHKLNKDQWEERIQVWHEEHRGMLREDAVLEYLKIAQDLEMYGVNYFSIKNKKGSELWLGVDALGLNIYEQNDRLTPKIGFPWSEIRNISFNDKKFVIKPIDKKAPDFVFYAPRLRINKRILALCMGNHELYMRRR

[2] = target: T1, merlin FERM domain (22-312), GST tag …; assay: fluorescence polarisation

Kd [1]	binding result [2]	Binder	other results
90 nM		YYSVNTFKEHHSTPTI [KIRREL3_(637-652), unlabeled peptide]	
		AEPLPSLEYWPQKSDR (also: FITC label (position not given here)) [FITC-labeled FAM83G_(111-126)]	Kd [2]: 93 µM
	binds	FYDLWASDNPLDRPLV (also: FITC label, site not given here) [FITC-labeled NOP53_(192-207)]	
	binds	LEFADFYDFRSSYPDH (also: FITC label, site not given here) [FITC-labeled ZNF622_(341-356)]	
120 nM		TNGYYSVNTFKEHHSTPTI [KIRREL3 peptide with N-terminal extension of three amino acids (634-652), unlabeled]	
